Source: patent US20250333523A1 (Alector, published 2025)

T1: Avi/HisMsIL18BPd (recombinant mouse IL-18BP with Avi and poly-His tags) (mouse)
T1 sequence (chain, biotinylated with BirA on the Avi tag in some assays): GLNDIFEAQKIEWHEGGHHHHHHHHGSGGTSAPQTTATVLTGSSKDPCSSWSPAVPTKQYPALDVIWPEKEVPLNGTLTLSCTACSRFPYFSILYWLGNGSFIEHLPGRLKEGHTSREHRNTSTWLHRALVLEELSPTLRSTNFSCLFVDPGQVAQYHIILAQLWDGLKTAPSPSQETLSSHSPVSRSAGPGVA

T2: Avi/His-HuIL18BPa (recombinant human IL-18BP isoform A with Avi and poly-His tags) (human, biotinylated with BirA on the Avi tag in some assays)
T2 chain: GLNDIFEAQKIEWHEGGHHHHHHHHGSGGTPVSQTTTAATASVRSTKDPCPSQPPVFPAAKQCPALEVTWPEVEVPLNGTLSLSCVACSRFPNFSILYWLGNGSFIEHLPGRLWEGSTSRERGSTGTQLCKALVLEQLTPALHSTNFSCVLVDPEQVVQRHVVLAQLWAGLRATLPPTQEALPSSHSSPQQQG

T3: His/Avi-CynoIL18BP (recombinant cynomolgus IL-18BP with His and Avi tags) (cynomolgus monkey)
T3 chain: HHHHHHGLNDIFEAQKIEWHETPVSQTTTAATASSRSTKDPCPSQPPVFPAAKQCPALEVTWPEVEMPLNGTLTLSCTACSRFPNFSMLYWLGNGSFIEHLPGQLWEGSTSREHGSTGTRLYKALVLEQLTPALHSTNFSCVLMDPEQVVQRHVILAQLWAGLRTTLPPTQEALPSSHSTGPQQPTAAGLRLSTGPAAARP

T4: Avi/HisMsIL18BPd (recombinant mouse IL-18BP with Avi and poly-His tags) (mouse, biotinylated with BirA on the Avi tag in some assays)
T4 chain: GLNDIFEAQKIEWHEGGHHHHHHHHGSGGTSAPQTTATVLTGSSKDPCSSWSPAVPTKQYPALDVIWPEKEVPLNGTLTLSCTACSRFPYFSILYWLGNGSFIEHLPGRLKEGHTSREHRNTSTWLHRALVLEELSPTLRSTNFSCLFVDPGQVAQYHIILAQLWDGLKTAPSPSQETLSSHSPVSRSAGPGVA

T5: mouse IL-18BPd-human IgG Fc (R&D Systems, Cat. #122-BP-100) (mouse; human, UniProt Q9Z0M9 29-193)
T5 construct: Bought; also called mouse IL-18BPd-Fc Chimera
T5 sequence (looked up): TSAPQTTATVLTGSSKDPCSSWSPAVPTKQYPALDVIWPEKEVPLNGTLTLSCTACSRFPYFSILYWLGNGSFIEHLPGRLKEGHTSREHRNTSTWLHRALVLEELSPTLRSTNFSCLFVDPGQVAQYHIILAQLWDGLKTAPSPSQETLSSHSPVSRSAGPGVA

B1: anti-IL18BP antibody BP-08 (antibody, human IgG1, V domains shown)
VH: QVQLQQPGAELVKPGASVKLSCKVSGYTFTSYWMHWVKQRPGQGLEWIGMIDPNSDSSRYNEKFKNRATLTADKSSSTAFMQFSSLTSEDSAVYYCARSRLGQDYWGQGTTLTVSS
VL: DIVMTQSHKFMSTSVGDRVSITCKASQDVSTAVAWYQQKPGQSPKLLIYWASTRHTGVPDRFTGSESGTDYTLIISSVQAEDLALYYCQQHFSTPYTFGGGTKLEIK
B2: anti-IL18BP antibody BP-11 (antibody, human IgG1, V domains shown)
VH: QVQLQQSGAELAKPGASVKMSCKASGYTFTNYWMHWVKQRPGQGLEWIGHIDPSTGYTEYNQKFKDKATLTADKSSSTAYMQLSSLTSEDSAVYYCARGLGGLFGYWGQGTLVTVSA
VL: DIQMTQSPSSLSASLGGKVTITCKASQDINKFIAWYQHKPGKGPRLLIHHTSTLMPGIPSRFSGSGSGREYSFSISNLEPEDIATYYCLQYDNLLWTFGGGTKLEIR
B3: anti-IL18BP antibody BP-06 (antibody, human IgG1, V domains shown)
VH: QIQLQQSGPELVKPGASVKISCKASGYTFTDYYLNWVKQTPGQGLEWIGWIYPGSGNTKYTEKFKDKASLTVDTSSNTAYMQLSSLTSDDTAVYFCARRGVAWFAYWGQGTLVTVSA
VL: DIKMTQSPSSIYASLGERVTITCKASQDINSYLSWFQQKPGKSPKTLIHRANRLVDGVPSRFSGSGSGQDYSLTISSLEYEDMGIYYCLQHDDFPPTFGAGTNLELK

Tests used:
[1] = target: T1, Avi/HisMsIL18BPd (recombinant mouse IL-18BP with Avi and poly-His tags) (mouse); experiment: ELISA, coated IL-18BP
[2] = target: T2, Avi/His-HuIL18BPa (recombinant human …); experiment: cell-based or functional assay
[3] = target: T2, Avi/His-HuIL18BPa (recombinant human …); experiment: blocking ELISA, competitor human IL-18
[4] = target: T3, His/Avi-CynoIL18BP (recombinant …); experiment: cell-based or functional assay
[5] = target: T1, Avi/HisMsIL18BPd (recombinant mouse IL-18BP with Avi and poly-His tags) (mouse); experiment: cell-based or functional assay
[6] = target: T3, His/Avi-CynoIL18BP (recombinant …); experiment: ELISA, coated IL-18BP
[7] = target: T2, Avi/His-HuIL18BPa (recombinant human …); experiment: ELISA, coated IL-18BP
[8] = target: T3, His/Avi-CynoIL18BP (recombinant …); experiment: blocking ELISA, competitor rhesus IL-18
[9] = target: T3, His/Avi-CynoIL18BP (recombinant …); experiment: SPR Carterra LSA, IgG immobilized
[10] = target: T2, Avi/His-HuIL18BPa (recombinant human …); experiment: SPR Carterra LSA, IgG immobilized
[11] = target: T4, Avi/HisMsIL18BPd (recombinant mouse …); experiment: cell-based or functional assay
[12] = target: T4, Avi/HisMsIL18BPd (recombinant mouse …); experiment: ELISA, coated IL-18BP
[13] = target: T3, His/Avi-CynoIL18BP (recombinant …); experiment: SPR Biacore T200, IgG captured on Protein A/G
[14] = target: T2, Avi/His-HuIL18BPa (recombinant human …); experiment: SPR Biacore T200, IgG captured on Protein A/G
[15] = target: T5, mouse IL-18BPd-human IgG Fc (R&D …); experiment: blocking ELISA, competitor mouse IL-18
[16] = target: T4, Avi/HisMsIL18BPd (recombinant mouse …); experiment: SPR, qualitative

| Binder | ELISA binding ratio (fold-change over background) (fold over background) [1] | EC50 of IFNγ release, human PBMC [2] [nM] | Fold change of IFNγ at 10 µg/ml vs baseline, human PBMC [2] [fold] | blocking ELISA signal normalized to isotype control (=1) [3] | % of Max Gamma, human NK cells [4] [%] | EC50 of IFNγ release, human NK cells [4] [nM] | Fold change of IFNγ at 10 µg/ml vs baseline, mouse splenocytes [5] [fold] | ELISA binding ratio (fold-change over background) [6] [fold over background] | ELISA binding ratio (fold-change over background) [7] [fold over background] | blocking ELISA signal normalized to isotype control (=1) [8] | Kd [9] [nM] | Kd [10] [nM] | EC50 of IFNγ release, mouse splenocytes [11] [nM] | Fold change of IFNγ at 10 µg/ml vs baseline, mouse splenocytes [11] [fold] | ELISA binding ratio (fold-change over background) [12] [fold over background] | Kd [13] [nM] | Kd [14] [nM] | blocking ELISA signal normalized to isotype control (=1) [15] | binding result [16] |
| --- | --- | --- | --- | --- | --- | --- | --- | --- | --- | --- | --- | --- | --- | --- | --- | --- | --- | --- | --- |
| B1 | 35 | 2.01 | 5.19 | 0.133 ratio to isotype control | 58.4 | 19.2 | 0.75 | 41.5 | 38.8 | 0.478 ratio to isotype control | 41.4 | 6.9 |  |  |  |  |  |  |  |
| B2 |  | 4.25 | 9.72 | 0.089 ratio to isotype control | 100 | 37.1 |  | 47.6 | 44.4 | 0.49 ratio to isotype control |  |  | 7 | 2.75 | 43.6 | 1 | 2.9 | 0.14 ratio to isotype control |  |
| B3 |  | 1.23 | 10.9 | 0.174 ratio to isotype control | 75.8 | 8.07 |  | 44.3 | 42.1 | 0.378 ratio to isotype control |  |  |  | 1.11 | 1.2 |  |  | 0.971 ratio to isotype control | no binding |
